The target in experiment [1] is human αV on parental A375M cells (αVβ3 and αVβ5) (human) (UniProt P06756). The experiment is described as follows: FACS, supernatant, parental A375M cells (αVβ3 and αVβ5, no αVβ6). (In general: Flow cytometry measures light scatter and fluorescence of single cells or particles in a stream.)
For experiment [2] the target is unchanged. As to the kind of experiment: cell-based or functional assay.
The target in experiment [3] is T1, mouse β6 on transfected HEK-293 cells (mouse) (UniProt Q9Z0T9).
T1 sequence (looked up): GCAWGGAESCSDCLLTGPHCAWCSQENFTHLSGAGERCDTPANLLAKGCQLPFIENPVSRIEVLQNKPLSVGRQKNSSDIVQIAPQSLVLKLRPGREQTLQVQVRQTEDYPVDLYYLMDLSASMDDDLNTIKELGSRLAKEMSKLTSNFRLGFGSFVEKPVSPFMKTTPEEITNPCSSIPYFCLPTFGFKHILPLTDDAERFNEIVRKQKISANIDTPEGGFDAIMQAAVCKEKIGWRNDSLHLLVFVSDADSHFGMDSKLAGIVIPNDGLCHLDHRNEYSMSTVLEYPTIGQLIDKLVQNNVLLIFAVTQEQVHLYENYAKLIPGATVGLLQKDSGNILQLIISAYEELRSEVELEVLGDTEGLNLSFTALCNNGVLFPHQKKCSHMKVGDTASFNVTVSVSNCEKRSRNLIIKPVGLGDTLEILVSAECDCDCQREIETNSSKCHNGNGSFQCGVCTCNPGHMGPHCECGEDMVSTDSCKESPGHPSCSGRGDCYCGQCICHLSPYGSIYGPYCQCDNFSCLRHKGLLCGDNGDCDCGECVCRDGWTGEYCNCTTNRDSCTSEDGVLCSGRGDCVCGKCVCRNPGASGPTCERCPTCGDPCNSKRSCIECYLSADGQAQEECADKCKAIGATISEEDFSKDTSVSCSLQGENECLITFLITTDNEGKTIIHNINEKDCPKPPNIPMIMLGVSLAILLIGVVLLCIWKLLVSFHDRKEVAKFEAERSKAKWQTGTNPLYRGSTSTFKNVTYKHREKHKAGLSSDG
As to the kind of experiment: FACS, purified mAb, transiently transfected HEK-293 cells (parental cells 74).

The target of experiment [4] is mouse αV on transfected HEK-293 cells (mouse) (UniProt P43406). Described as above.
In experiment [5] the target is cynomolgus β6 on transfected HEK-293 cells (cynomolgus). The description is as above.

Chain of mouse αV on transfected HEK-293 cells (mouse) (P43406 31-1044): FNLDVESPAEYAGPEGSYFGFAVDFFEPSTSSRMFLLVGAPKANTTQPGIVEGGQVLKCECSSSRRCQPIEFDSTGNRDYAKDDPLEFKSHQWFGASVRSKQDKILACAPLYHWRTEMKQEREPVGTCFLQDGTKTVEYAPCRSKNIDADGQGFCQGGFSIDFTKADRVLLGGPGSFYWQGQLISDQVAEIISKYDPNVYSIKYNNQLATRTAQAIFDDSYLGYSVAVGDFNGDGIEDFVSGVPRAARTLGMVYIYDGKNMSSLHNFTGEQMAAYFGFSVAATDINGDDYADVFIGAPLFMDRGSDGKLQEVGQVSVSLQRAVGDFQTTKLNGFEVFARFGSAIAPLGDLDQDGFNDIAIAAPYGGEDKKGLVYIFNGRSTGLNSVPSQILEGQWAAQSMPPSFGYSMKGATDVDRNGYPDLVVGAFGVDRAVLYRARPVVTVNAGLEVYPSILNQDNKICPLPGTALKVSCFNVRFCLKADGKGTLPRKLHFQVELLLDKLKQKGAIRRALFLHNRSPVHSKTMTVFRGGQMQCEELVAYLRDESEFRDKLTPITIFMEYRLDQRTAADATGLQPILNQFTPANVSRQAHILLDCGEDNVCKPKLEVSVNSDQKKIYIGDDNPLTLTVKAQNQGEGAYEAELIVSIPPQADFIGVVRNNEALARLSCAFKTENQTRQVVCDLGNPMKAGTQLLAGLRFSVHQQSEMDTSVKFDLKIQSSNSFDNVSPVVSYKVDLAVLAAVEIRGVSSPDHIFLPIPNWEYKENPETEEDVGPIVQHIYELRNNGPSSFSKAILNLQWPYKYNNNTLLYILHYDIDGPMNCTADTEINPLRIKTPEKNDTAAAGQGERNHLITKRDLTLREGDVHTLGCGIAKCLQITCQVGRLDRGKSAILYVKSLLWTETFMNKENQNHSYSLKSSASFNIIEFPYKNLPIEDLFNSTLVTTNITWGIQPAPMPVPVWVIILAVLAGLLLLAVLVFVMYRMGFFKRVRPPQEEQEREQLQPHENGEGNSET

B1: sc 161 (antibody, V domains shown)
VH: EVQLVQSGAEVKKPGESLKISCKGSGYSFTSYWIGWVRQMPGKGLEWMGIIYPGDSDTRYSPSFQGQVTISADKSISTAYLQWSSLKASDTAMYYCARHGIAAAGFYYYYMDVWGQGTTVTVSS
VL: EIVLTQSPDTLSLSPGERASLSCRASQNVNRNYLVWYQQKPGQAPRLLIYGTSNRATGIPDRFSGSGSGTDFTLTISRLEPEDFAVYYCQQCGSLPFTFGPGTKVDIKR
As for B1, in experiment [1], the A375M % Shifted Cells was determined as 11% and the A375M GeoMean worked out at 16.7.

B2: sc 320 (antibody, V domains shown)
VH: EVQLVESGGGLVKPGGSLRLSCAASGYTFTNYIMHWVRQAPGKGLEWVSSISISSSYIYYADSVKGRFTISRDNAKNSLYLQMNSLRAEDTAVYYCARDPVPLERRDYYYGMDVWGQGTTVTVSS
VL: QSVLTQPPSMSAAPGQKVTISCSGSSSNIGNNYVSWYQQLPGTAPKLLIYDNNKRPSGIPDRFSGSKSGTSATLGITGLQTGDEADYYCGTWDSSLSAGVFGGGTKLTVL
On to B2, for which, in experiment [1], the A375M % Shifted Cells was found to be 15% and the A375M GeoMean was determined as 23.2.

B3: sc 277 (antibody, V domains shown)
VH: EVQLVQSGAEVKKPGESLKISCKGSGYSFPSYWIGWVRQMPGKGLEWMGIIYPGDSDTRYSPSFQGQVTISADKSISTAYLQWSSLKASDTAMYYCARHPMEDGMDVWGQGTTVTVSS
VL: SYELTQPPSVSVSPGQTARITCSGDALPKKYAFWYQQKSGQAPVLVIYDDNKRPSGIPERFSGSSSGTMATLTITGAQVEDEADYYCYSTDSSGHHVFGGGTKLTVL
As for B3, in experiment [1], the A375M % Shifted Cells was determined as 23% and the A375M GeoMean is 1.86.

B4: sc 97 (antibody, V domains shown)
VH: EVQLVQSGAEVKKPGESLKISCKGSGYSFTSYWIGWVRQMPGKGLEWMGIIYPGDSDTRYSPSFQGQVILSADKSISTAYLQWSSLKASDTAMYYCARHDESSGYYYVFDIWGQGTMVTVSS
VL: SYELTQPPSVSVSPGQTARITCSGDALPKKYAYWYQQKSGQAPVLVIYEDIKRPSGIPERFSGSSSGTMATLTISGAQVEDEADYYCYSTDSSGNHWVFFGGGTKLTVL
Take B4: in experiment [1], the A375M % Shifted Cells was found to be 24% and the A375M GeoMean came out at 1.84.

B5: sc 133 (antibody, V domains shown)
VH: QVQLVQSGAEVKKPGASVKVSCKASGYTFTGYYMHWVRQAPGQGLEWMGWINPKSGDTNYAQKFQGRVTLTRDTSTSTAYMELSRLRSDDTAVYYCARRLDVWGQGTTVTVSS
VL: QSVLTQPPSVSAAPGQKVTISCSGSSSNIGNNYVSWYQQLPGTAPKLLIYDNNKRPSGIPDRFSGSKSGTSATLGITGLQTGDEADYYCGTWNSSLSAGYVFGTGTKVTV
Turning to B5, in experiment [2], the Percent Inhibition, adhesion of A375M cells to osteopontin peptide, 5 µg/ml was determined as 3%. In addition, in experiment [1], the A375M % Shifted Cells was 24% and the A375M GeoMean was found to be 1.79.

B6: sc 264 (antibody, V domains shown)
VH: QVQLQESGPGLVKPSQTLSLTCTVSGGSISSGGYYWSWIRQHPGKGLEWIGYIYYSGRTYNNPSLKSRVTISVDTSKNQFSLKLSSVTAADTAVYYCARVATGRGDYHFYAMDVWGQGTTVTVSS
VL: SYELTQPSSVSVSPGQTARITCSGDVLAKKSARWFHQKPGQAPVLVIYKDSERPSGIPERFSGSSSGTTVTLTISGAQVEDEAAYYCYSAADNNLVFGGGTKLTVL
Turning to B6, the percent of cells shifted in experiment [3] was found to be 68%; in experiment [4], 71%; in experiment [5], 75%. For the same molecule, the Percent Inhibition, adhesion of A375M cells to osteopontin peptide, 5 µg/ml in experiment [2] was 3%. In addition, the A375M % Shifted Cells in experiment [1] was 46%. Besides, in experiment [1], the A375M GeoMean turned out to be 2.35.

The values above are taken from patent publication US20150166663A1.
